Substrate: O=[N+]([O-])c1ccc(O[C@@H]2O[C@@H](CO)[C@H](O)[C@H]2O)cc1
Test: purified protein
Format: biochemical, Alicyclobacillus sp. A4
Conditions: pH 6.0, McIlvaine buffer, 60 °C, 5 min, substrate 1-10 mM

B1: Ac-Abf51A (Alicyclobacillus sp. A4) (protein)
chain: MSKSIARMTIDPQYQLADVDPRLFGSFIEHLGRAVYGGIYEPDHPSADEMGFRQDVLELVRELQVPIVRYPGGNFVSGYRWEDGVGPLASRPAQLDLAWRSLEPNRVGVNEFVEWAKRANSEVMMAVNLGTRGIDEAKQIVEYCNHPGGSYWSDLRKSHGYEQPHGIKVWCLGNEMDGPWQIGHKTAEEYGRIAEEAAKVMKWVDPSIELVACGSSGSKMPTFPDWERIVLEHTYDHVEYISMHSYYGNRENDLATYLAQSLDMDHFIRSVIATCDYVKAKKRSKKTINISFDEWNVWFHSNEADKQVAPWQVGPPLLEDVYTFEDALVVGCLLITLLRHADRVKMACLAQLVNVIAPIMTENGGVSWKQTIYYPFLHASRYGRGKVMHCSLQSPKYDCKEFTDVPLVESVAVWNQDIAELTIFAVNRSQDGGIELECDIRGFAQASVIEHTVLVHSDLKAANTKEEPQEVIPQHAQGAKVDGGLLFAPLPKLSWNVIRLRV
notes: no signal peptide; pET-30a(+) NdeI/NotI, C-terminal His tag inferred from cloning; E. coli BL21(DE3); Ni-NTA
**Q.** For B1, which Km is on record?
**A.** Its Km is 0.46 mM.

**Q.** And the kcat?
**A.** Its kcat is 23.0 s⁻¹.

— paper PMC4666033, “A novel bifunctional GH51 exo-α-L-arabinofuranosidase/endo-xylanase from Alicyclobacillus sp. A4 with significant biomass-degrading capacity” (Biotechnology for Biofuels, 2015)
